Experimental data reported in US20260146093A1 (DREN BIO MANAGEMENT, published 2026).
Positions count from the first letter of the chain named. Like-named read-outs stand apart in the source and are kept apart here.

Experiments:
[1] = target: T1, human Dectin-1 isoform A on HEK-Blue hDectin-1a cells (human, UniProt Q9BXN2 1-247); assay: cell-based or functional assay
T1 sequence: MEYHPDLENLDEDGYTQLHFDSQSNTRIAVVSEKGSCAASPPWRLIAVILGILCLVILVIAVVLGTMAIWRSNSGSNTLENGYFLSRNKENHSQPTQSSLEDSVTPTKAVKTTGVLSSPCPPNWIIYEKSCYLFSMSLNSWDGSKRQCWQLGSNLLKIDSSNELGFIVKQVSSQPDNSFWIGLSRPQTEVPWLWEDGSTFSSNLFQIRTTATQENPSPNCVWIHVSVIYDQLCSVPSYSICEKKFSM

[2] = target: human Dectin-1 on HEK cells expressing hDectin-1 (human) (UniProt Q9BXN2); assay: flow cytometry on HEK cells expressing hDectin-1 (sheet title: Binding to hDec1 on Hek)
[3] = target: T2, human Trop-2 expressed on cells (A-431, NCI-N87, SKBR3, CHO-K1-hTrop2) (human, UniProt P09758 27-323); assay: flow cytometry on A431 cells expressing hTrop-2
T2 sequence: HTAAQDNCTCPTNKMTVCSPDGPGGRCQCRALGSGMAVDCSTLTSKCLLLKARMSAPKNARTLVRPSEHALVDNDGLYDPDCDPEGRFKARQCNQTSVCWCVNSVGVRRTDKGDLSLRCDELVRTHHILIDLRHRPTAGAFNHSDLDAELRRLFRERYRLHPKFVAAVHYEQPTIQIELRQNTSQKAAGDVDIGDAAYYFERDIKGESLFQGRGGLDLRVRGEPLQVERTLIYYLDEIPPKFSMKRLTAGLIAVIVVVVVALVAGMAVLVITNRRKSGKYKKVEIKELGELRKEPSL

[4] = target: T2, human Trop-2 expressed on cells (A-431, …); assay: flow cytometry on A-431 cells, fluorescent anti-human secondary antibody
Procedure: (§1) FIGS. 2A-2D show binding assays in which cells expressing human Trop-2 were incubated with anti-Dectin-1 x anti-Trop-2 bispecific antibodies with human IgG1 Fc (as indicated) or isotype control, and binding was measured by flow cytometry using a fluorescently labeled anti-human secondary antibody. Shown are binding of the indicated antibodies to human epidermoid carcinoma A-431 cells (FIG. 2A), human gastric carcinoma NCI-N87 cells (FIG. 2B), human breast cancer SKBR3 cells (FIG. 2C), or CHO-K1 cells expressing human Trop-2 (FIG. 2D).
(§2) Human cancer cell lines and CHO cells expressing human Trop-2 (CHO-K1-hTrop2 cells) were incubated with the anti-Dectin-1 x anti-Trop-2 bispecific antibodies, Trop-2 clones 15, 45, 76, 77, 63, 64, 65 and 123, or the hIgG1 isotype, followed by a fluorescent anti-human secondary antibody. The primary antibodies were used in an 8-point serial dose titration starting at 300 or 100 nM and diluted 1 to 3.

[5] = target: T1, human Dectin-1 isoform A on HEK-Blue …; assay: cell-based or functional assay; remark: listed apart in the source
[6] = target: T2, human Trop-2 expressed on cells (A-431, …); assay: flow cytometry on CHO-K1-hTrop2 cells, fluorescent anti-human secondary antibody
Procedure: as §1, §2

[7] = target: T2, human Trop-2 expressed on cells (A-431, …); assay: flow cytometry on NCI-N87 cells, fluorescent anti-human secondary antibody
Procedure: as §1, §2

Human Trop-2 ECD protein = target: T3, Human Trop-2 ECD protein (human, UniProt P09758 27-274); assay: BLI, hTrop-2 ECD captured via anti-HIS Tag, bispecific antibody in solution (monovalent)
T3 construct: also called hTrop-2 ECD; not shown: HIS tag (captured on the biosensor via anti-HIS Tag)
T3 sequence: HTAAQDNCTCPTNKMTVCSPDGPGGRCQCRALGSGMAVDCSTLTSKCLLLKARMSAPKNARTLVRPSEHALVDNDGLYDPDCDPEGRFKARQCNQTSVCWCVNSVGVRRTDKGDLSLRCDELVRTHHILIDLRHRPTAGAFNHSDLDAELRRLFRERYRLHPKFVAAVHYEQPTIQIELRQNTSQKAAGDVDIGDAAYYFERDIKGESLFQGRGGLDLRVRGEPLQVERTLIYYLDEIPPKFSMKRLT
Procedure: Monovalent binding affinity was measured by biosensor (BLI). Human Trop-2 ECD protein was captured on biosensor via anti-HIS Tag. On and off rate binding was measured against bispecific antibodies with 1 arm binding to hTrop2 at varying concentrations. On rate and off rate measurements were fitted to generated KD values.
Monovalent binding affinity of each anti-Dectin-1 x anti-Trop-2 bispecific antibody to the human Trop-2 ECD was also measured by biosensor (BLI).

[8] = target: T2, human Trop-2 expressed on cells (A-431, …); assay: cell-based or functional assay
[9] = target: T2, human Trop-2 expressed on cells (A-431, …); assay: flow cytometry on SKBR3 cells, fluorescent anti-human secondary antibody
Procedure: as §1, §2

[10] = target: T2, human Trop-2 expressed on cells (A-431, …); assay: flow cytometry on CHO-K1 cells expressing hTrop-2 (sheet title: Binding to Chok1 hTrop2)
[11] = target: T1, human Dectin-1 isoform A on HEK-Blue …; assay: cell-based or functional assay; remark: listed apart in the source

B1: Dectin-1 2M24.131 x Trop-2 clone A hIgG1 (bispecific antibody)
anti-Dectin-1 scFv-Fc arm: QVQLVQSGAEVKKPGASVKVSCKASGYTFTDYYMHWVRQAPGQGLEWMGWINPNEGDTNYAQKFEGRITMTRDTSISTAYMELSRLRSDDTAVYYCARNTGAYSFGYWGCGTLVTVSSGGGGSGGGGSGGGGSGGGGSDIQMTQSPSSVSASVGDRVTITCRASQGISSWLAWYQQKPGKCPKLLIYGASDLQSGVPSRFSGSGSGTDFTLTISSLQPEDFATYYCQQAYGFPFTFGPGTKVDIKEPK
anti-Trop-2 heavy chain: QVQLQQSGSELKKPGASVKVSCKASGYTFTNYGMNWVKQAPGQGLKWMGWINTYTGEPTYTDDFKGRFAFSLDTSVSTAYLQISSLKADDTAVYFCARGGFGSSYWYFDVWGQGSLVTVSS
anti-Trop-2 light chain: DIQLTQSPSSLSASVGDRVSITCKASQDVSIAVAWYQQKPGKAPKLLIYSASYRYTGVPDRFSGSGSGTDFTLTISSLQPEDFAVYYCQQHYITPLTFGAGTKVEIK
notes: member of group m8; also called 2M24.131xTrop-2 clone A hG1; scFv-format anti-Dectin-1 x anti-Trop-2 bispecific, clone A
EC50 of SEAP secretion by the hDectin-1 reporter cells (hDec1 Reporter Assay; the Trop-2-expressing cell line is not named) [1]: 1.46 nM | EC50 (read off the curve) [2]: 4 nM | binding result [3]: binds

B2: 2M24 × Trop-2 clone A hG1 (bispecific antibody, V domains shown)
VH 1: QVQLVQSGAEVKKPGASVKVSCKSSGYTFTDYYIHWVRQAPGQGLEWMGWINPNSGDTNYAQKFQGRITMTRDTSISTAYLELSRLRSDDTAVFYCARNSGSYSFGYWGQGTLVTVSS
VL 1: DIQMTQSPSSVSASVGDRVTITCRASQGISSWLAWYQQKPGKAPKLLIFGASSLQSGVPSRFSGSGSGTDFTLTVSSLQPEDFATYYCQQAYSFPFTFGPGTKVDIE
VH 2: B1 anti-Trop-2 heavy chain
VL 2: B1 anti-Trop-2 light chain
notes: also called anti-Dectin-1 x anti-Trop-2 bispecific antibody
EC50 [4]: 6.12 nM | Dectin-1 pathway activation (SEAP secretion), HEK-Blue hDectin-1a cells in the presence of A-431 cells, EC50 [5]: 0.05 µg/mL | Dectin-1 pathway activation (SEAP secretion), HEK-Blue hDectin-1a cells in the presence of CHO-K1-hTrop2 cells, EC50 [5]: 0.06 µg/mL | Dectin-1 pathway activation (SEAP secretion), HEK-Blue hDectin-1a cells in the presence of NCI-N87 cells, EC50 [5]: 0.04 µg/mL | Dectin-1 pathway activation (SEAP secretion), HEK-Blue hDectin-1a cells in the presence of SKBR3 cells, EC50 [5]: 0.04 µg/mL | EC50 [6]: 3.78 nM | EC50 [7]: 11.7 nM | Kd (Human Trop-2 ECD protein): 4.12 nM | koff (Human Trop-2 ECD protein): 0.000891 s⁻¹ | kon (Human Trop-2 ECD protein): 217000 M⁻¹ s⁻¹ | Induction of phagocytosis in vitro of A-431 cells by human macrophages, EC50 [8]: 0.31 nM | Induction of phagocytosis in vitro of NCI-N87 cells by human macrophages, EC50 [8]: 0.2 nM | Induction of phagocytosis in vitro of SKBR3 cells by human macrophages, EC50 [8]: 0.507 nM | EC50 [9]: 18.5 nM

B3: Dectin-1 2M24.131 x Trop-2 clone B hIgG1 (bispecific antibody)
anti-Dectin-1 scFv-Fc arm: B1 anti-Dectin-1 scFv-Fc arm
anti-Trop-2 heavy chain: QVQLQESGPGLVKPSGTLSLTCAVSGGSISSSNWWSWVRQPPGKGLEWIGEIYHDGSTDYFPSLKSRVTISVDKSKNQFSLKLSSVTAADTAVYYCARDNWGFDYWGQGTLVTVSS
anti-Trop-2 light chain: DIVLTQSPGTLSLSPGERATLSCRASQSVSSSYLAWYQQKPGQAPRLLISGASSRATGIPDRFSGSGSGTDFTLTISRLEPEDFAVYYCQQYGSSHRTFGQGTKVEIK
notes: member of group m8; also called 2M24.131xTrop-2 clone B hG1; scFv-format anti-Dectin-1 x anti-Trop-2 bispecific, clone B
EC50 of SEAP secretion by the hDectin-1 reporter cells (hDec1 Reporter Assay; the Trop-2-expressing cell line is not named) [1]: 0.91 nM | EC50 (read off the curve) [2]: 3 nM | binding result [3]: binds

B4: Dectin-1 2M24.131 x Trop-2 clone C hIgG1 (bispecific antibody)
anti-Dectin-1 scFv-Fc arm: B1 anti-Dectin-1 scFv-Fc arm
anti-Trop-2 heavy chain: QVQLVQSGSELKKPGASVKLSCKASGYTFTSYGMNWVRQAPGQGLEWMGWINTNTGNPTYAQGFTGRFVFSLDTSVSTAYLQISSLKAEDTAVYYCARGYNWNDGDFDYWGQGTLVTVSS
anti-Trop-2 light chain: AIQMTQSPSSLSPSVGDRVTITCRASQGIRNDLGWYQQKPGKAPKLLIFAASSLQSGVPSRFSGSGSGTDFTLTISNLQPEDFATYYCLQNYNYPLTFGGGTKVEIK
notes: member of group m8; also called 2M24.131xTrop-2 clone C hG1; scFv-format anti-Dectin-1 x anti-Trop-2 bispecific, clone C
EC50 of SEAP secretion by the hDectin-1 reporter cells (hDec1 Reporter Assay; the Trop-2-expressing cell line is not named) [1]: 1.49 nM | EC50 (read off the curve) [2]: 3 nM | binding result [3]: binds

B5: 2M24 × Trop-2 clone C hG1 (bispecific antibody, V domains shown)
VH 1: B2 VH 1
VL 1: B2 VL 1
VH 2: B4 anti-Trop-2 heavy chain
VL 2: B4 anti-Trop-2 light chain
notes: Full chains appear only in embodiments and are not tied to the tested molecule; also called anti-Dectin-1 x anti-Trop-2 bispecific antibody; DR02B.77
EC50 [4]: 53.2 nM | Dectin-1 pathway activation (SEAP secretion), HEK-Blue hDectin-1a cells in the presence of A-431 cells, EC50 [5]: 0.08 µg/mL | Dectin-1 pathway activation (SEAP secretion), HEK-Blue hDectin-1a cells in the presence of CHO-K1-hTrop2 cells, EC50 [5]: 0.05 µg/mL | Dectin-1 pathway activation (SEAP secretion), HEK-Blue hDectin-1a cells in the presence of NCI-N87 cells, EC50 [5]: 0.06 µg/mL | Dectin-1 pathway activation (SEAP secretion), HEK-Blue hDectin-1a cells in the presence of SKBR3 cells, EC50 [5]: 0.05 µg/mL | EC50 [6]: 7.25 nM | EC50 [7]: 39.5 nM | Kd (Human Trop-2 ECD protein): 12.9 nM | koff (Human Trop-2 ECD protein): 0.00181 s⁻¹ | kon (Human Trop-2 ECD protein): 140000 M⁻¹ s⁻¹ | Induction of phagocytosis in vitro of A-431 cells by human macrophages, EC50 [8]: 0.45 nM | Induction of phagocytosis in vitro of NCI-N87 cells by human macrophages, EC50 [8]: 0.132 nM | Induction of phagocytosis in vitro of SKBR3 cells by human macrophages, EC50 [8]: 0.319 nM | EC50 [9]: 28 nM

B6: Dectin-1 2M24.124 x Trop-2 clone C hIgG1 (bispecific antibody)
anti-Dectin-1 heavy chain: B2 VH 1 with S24A, I34M, S55E, Q65E, L81M, F94Y, S100T, S102A, Q110C
anti-Dectin-1 light chain: B2 VL 1 with A43C, F49Y, S53D, V75I, S93G, E107K
anti-Trop-2 heavy chain: B4 anti-Trop-2 heavy chain
anti-Trop-2 light chain: B4 anti-Trop-2 light chain
notes: member of group m9; also called 2M24.124xTrop-2 clone C hG1; disulfide-engineered Fab-format bispecific, clone C
EC50 (read off the curve) [10]: ~9 nM | EC50 of SEAP secretion by the hDectin-1 reporter cells (hDec1 Reporter Assay; the Trop-2-expressing cell line is not named) [11]: 0.69 nM

B7: 2M24 × Trop-2 clone B hG1 (bispecific antibody, V domains shown)
VH 1: B2 VH 1
VL 1: B2 VL 1
VH 2: B3 anti-Trop-2 heavy chain
VL 2: B3 anti-Trop-2 light chain
notes: Full chains appear only in embodiments and are not tied to the tested molecule; also called anti-Dectin-1 x anti-Trop-2 bispecific antibody; DR02B.65
EC50 [4]: 7.56 nM | Dectin-1 pathway activation (SEAP secretion), HEK-Blue hDectin-1a cells in the presence of A-431 cells, EC50 [5]: 0.04 µg/mL | Dectin-1 pathway activation (SEAP secretion), HEK-Blue hDectin-1a cells in the presence of CHO-K1-hTrop2 cells, EC50 [5]: 0.07 µg/mL | Dectin-1 pathway activation (SEAP secretion), HEK-Blue hDectin-1a cells in the presence of NCI-N87 cells, EC50 [5]: 0.03 µg/mL | Dectin-1 pathway activation (SEAP secretion), HEK-Blue hDectin-1a cells in the presence of SKBR3 cells, EC50 [5]: 0.04 µg/mL | EC50 [6]: 4.32 nM | EC50 [7]: 17.9 nM | Kd (Human Trop-2 ECD protein): 9.55 nM | koff (Human Trop-2 ECD protein): 0.000475 s⁻¹ | kon (Human Trop-2 ECD protein): 49700 M⁻¹ s⁻¹ | Induction of phagocytosis in vitro of A-431 cells by human macrophages, EC50 [8]: 0.34 nM | Induction of phagocytosis in vitro of NCI-N87 cells by human macrophages, EC50 [8]: 1.12 nM | Induction of phagocytosis in vitro of SKBR3 cells by human macrophages, EC50 [8]: 0.269 nM | EC50 [9]: 24.2 nM
